Reference: patent US20160331662A1, “Compositions that Inhibit and Prevent the Formation of Dental Caries and Methods of Using the Same” (priority 2014, published 2016)
No end group written: not given here. FAM = fluorescein amidite

T1: A3VP1^AgI/II (Streptococcus mutans UA159), P23504
T1 chain: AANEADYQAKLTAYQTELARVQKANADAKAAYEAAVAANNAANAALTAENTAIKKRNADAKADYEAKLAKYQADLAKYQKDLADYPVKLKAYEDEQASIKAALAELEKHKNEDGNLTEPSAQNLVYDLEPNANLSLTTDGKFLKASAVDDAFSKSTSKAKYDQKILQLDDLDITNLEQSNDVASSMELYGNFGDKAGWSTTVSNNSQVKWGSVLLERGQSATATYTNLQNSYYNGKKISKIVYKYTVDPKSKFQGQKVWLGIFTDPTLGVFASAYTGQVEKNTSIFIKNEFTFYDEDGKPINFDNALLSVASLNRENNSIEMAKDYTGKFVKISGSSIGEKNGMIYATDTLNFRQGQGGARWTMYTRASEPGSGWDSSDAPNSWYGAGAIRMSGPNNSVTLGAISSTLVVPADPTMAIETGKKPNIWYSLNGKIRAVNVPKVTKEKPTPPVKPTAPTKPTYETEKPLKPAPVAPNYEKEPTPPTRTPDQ

T2: FL^SspB (S. gordonii DL1 SspB, residues 39-1433) (Streptococcus gordonii DL1), P16952
T2 chain: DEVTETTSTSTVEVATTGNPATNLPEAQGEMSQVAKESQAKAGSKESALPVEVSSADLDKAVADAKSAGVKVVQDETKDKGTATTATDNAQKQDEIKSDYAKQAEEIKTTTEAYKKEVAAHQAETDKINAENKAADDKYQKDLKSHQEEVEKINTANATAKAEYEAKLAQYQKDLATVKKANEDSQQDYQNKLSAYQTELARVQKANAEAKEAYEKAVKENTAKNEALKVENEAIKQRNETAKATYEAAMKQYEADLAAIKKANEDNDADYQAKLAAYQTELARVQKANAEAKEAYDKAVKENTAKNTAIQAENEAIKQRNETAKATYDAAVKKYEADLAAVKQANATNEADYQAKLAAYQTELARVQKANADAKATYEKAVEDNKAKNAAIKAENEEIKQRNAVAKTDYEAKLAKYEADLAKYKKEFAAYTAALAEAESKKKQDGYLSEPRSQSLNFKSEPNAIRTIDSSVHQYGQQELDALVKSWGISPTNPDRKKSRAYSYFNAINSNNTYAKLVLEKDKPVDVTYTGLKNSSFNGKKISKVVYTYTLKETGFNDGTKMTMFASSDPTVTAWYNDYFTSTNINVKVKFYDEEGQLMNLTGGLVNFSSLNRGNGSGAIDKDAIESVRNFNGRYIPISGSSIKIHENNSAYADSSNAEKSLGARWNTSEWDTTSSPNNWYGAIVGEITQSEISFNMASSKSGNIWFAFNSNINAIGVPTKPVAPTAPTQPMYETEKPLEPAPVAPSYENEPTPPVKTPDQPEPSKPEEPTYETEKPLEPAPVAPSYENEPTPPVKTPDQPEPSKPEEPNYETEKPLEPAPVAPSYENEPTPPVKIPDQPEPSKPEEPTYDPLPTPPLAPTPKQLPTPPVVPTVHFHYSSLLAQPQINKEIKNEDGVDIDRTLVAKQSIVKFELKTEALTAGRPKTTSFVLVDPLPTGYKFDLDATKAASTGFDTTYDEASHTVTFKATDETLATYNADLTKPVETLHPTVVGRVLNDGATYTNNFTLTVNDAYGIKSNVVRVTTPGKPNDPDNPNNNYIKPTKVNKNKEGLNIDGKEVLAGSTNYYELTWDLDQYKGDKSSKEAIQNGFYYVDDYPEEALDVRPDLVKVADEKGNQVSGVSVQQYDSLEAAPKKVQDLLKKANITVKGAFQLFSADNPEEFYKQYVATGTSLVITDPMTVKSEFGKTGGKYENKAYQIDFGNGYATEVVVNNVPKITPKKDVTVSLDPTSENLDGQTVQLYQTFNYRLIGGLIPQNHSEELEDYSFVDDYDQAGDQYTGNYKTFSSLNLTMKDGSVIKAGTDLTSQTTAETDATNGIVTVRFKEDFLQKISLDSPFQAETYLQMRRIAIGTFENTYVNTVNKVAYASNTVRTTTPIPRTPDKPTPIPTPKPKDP

T3: FL^AgI/II (S. mutans UA159 Antigen I/II, full length recombinant construct) (Streptococcus mutans UA159), P23504
T3 chain: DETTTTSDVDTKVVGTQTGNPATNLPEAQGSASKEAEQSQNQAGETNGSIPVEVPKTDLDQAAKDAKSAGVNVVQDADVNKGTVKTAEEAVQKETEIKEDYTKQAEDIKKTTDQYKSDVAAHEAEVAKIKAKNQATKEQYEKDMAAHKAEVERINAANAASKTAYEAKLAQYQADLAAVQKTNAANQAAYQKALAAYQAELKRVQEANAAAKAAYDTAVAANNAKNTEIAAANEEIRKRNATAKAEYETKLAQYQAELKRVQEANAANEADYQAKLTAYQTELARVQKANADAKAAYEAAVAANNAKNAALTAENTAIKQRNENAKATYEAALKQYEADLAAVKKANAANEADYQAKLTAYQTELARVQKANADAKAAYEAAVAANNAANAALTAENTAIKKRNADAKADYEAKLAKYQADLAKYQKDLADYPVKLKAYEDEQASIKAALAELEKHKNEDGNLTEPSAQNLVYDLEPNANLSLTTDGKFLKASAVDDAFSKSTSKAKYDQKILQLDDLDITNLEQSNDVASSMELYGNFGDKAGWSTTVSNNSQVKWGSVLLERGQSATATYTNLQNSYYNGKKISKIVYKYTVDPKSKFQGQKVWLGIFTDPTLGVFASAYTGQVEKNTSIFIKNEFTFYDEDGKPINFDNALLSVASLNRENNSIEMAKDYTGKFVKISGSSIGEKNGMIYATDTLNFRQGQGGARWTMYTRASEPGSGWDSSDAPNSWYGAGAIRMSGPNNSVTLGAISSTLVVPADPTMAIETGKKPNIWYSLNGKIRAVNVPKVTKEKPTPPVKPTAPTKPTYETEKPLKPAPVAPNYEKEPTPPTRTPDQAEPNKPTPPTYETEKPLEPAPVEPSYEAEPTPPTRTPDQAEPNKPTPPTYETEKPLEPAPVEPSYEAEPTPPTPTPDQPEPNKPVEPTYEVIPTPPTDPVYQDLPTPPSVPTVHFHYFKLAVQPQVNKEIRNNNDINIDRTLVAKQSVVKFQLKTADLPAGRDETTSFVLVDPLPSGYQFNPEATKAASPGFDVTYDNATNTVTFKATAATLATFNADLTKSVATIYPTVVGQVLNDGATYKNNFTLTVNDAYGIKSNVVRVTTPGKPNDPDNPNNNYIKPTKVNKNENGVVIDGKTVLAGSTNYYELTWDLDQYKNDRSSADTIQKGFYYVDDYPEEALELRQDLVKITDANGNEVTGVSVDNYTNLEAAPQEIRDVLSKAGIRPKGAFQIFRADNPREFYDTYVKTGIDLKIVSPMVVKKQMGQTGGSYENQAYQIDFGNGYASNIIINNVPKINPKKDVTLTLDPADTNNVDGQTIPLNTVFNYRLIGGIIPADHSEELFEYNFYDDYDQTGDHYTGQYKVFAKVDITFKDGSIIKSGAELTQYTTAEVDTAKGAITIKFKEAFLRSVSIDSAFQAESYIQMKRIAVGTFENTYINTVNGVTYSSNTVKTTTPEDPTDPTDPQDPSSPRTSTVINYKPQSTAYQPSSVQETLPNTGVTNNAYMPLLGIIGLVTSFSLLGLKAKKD

T4: C123^AgI/II (Streptococcus mutans UA159), P23504
T4 chain: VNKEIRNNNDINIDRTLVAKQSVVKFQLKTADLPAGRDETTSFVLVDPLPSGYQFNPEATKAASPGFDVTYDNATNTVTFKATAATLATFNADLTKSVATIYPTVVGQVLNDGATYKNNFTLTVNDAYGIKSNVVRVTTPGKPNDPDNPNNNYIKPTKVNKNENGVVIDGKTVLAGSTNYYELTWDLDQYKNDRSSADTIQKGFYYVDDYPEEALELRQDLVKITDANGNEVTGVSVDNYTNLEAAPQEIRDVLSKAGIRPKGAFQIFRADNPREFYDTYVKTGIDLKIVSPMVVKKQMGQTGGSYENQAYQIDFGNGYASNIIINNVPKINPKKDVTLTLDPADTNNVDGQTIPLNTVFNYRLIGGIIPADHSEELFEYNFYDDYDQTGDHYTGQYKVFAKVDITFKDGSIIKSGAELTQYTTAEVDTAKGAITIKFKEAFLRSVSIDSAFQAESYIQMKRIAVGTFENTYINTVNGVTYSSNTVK


Columns and labels:
[1] = target: T1, A3VP1^AgI/II (Streptococcus mutans …); assay: SPR; 2 µM A3VP1^AgI/II incubated with 0.005 mM peptide, over immobilized iSRCR1
[2] = target: A3VP1^SspB (S. gordonii DL1 SspB, residues 386-805) (Streptococcus gordonii DL1) (UniProt P16952); assay: SPR; 2 µM A3VP1^SspB incubated with 0.005 mM peptide, over immobilized iSRCR1
[3] = target: T2, FL^SspB (S. gordonii DL1 SspB, residues …)
[4] = target: T1, A3VP1^AgI/II (Streptococcus mutans …)
[5] = target: T3, FL^AgI/II (S. mutans UA159 Antigen …)
[6] = target: T4, C123^AgI/II (Streptococcus mutans …)
[7] = target: T2, FL^SspB (S. gordonii DL1 SspB, residues …); assay: SPR; 2 µM FL^SspB incubated with 0.005 mM peptide, over immobilized iSRCR1
[8] = target: C123^SspB (S. gordonii DL1 SspB, residues 913-1406) (Streptococcus gordonii DL1) (UniProt P16952)
[9] = target: A3VP1^SspB (S. gordonii DL1 SspB, residues 386-805) (Streptococcus gordonii DL1) (UniProt P16952)
[10] = target: T3, FL^AgI/II (S. mutans UA159 Antigen …); assay: SPR; 2 µM FL^AgI/II incubated with 0.005 mM peptide, over immobilized iSRCR1
[11] = target: GbpC (S. mutans), glucan binding protein C (Streptococcus mutans); assay: SPR, peptide over immobilized GbpC

Binder	% improvement of adherence to iSRCR1 [1]	% change of adherence to iSRCR1 [2]	% improvement of adherence to iSRCR123 [3]	% improvement of adherence to iSRCR123 [4]	% improvement of adherence to iSRCR123 [5]	% change of adherence to iSRCR1 [6]	% change of adherence to iSRCR123 [6]	% improvement of adherence to iSRCR1 [7]	% change of adherence to iSRCR1 [8]	% change of adherence to iSRCR123 [8]	% change of adherence to iSRCR123 [9]	% improvement of adherence to iSRCR1 [10]	Ka [11]	Kd [11]	koff [11]	kon [11]
QGRVEVLYRGSWGTVCK-{FAM} [SRCRP2 peptide with fluorescein amidite (FAM) at the carboxyl end (…-[FAM])]	13%	3%	91%	16%	8%	2.3%	7%	97%	4%	5%	3%	8%	–	–	–	–
ETNDANVVARQL (modifications not checked) [SRCR peptide …]	–	–	–	–	–	–	–	–	–	–	–	–	2.57e+08 M⁻¹	3.89 nM	0.0573 s⁻¹	1.47e+07 M⁻¹ s⁻¹
